A word on the Kd: it is the free concentration of one partner at which half of the binding sites on the other are occupied at equilibrium, for simple one-to-one binding.

In assay [1] the target is recombinant wild-type cardiac actin (WTRec-ACTC), as F-actin filaments (human) (UniProt P68032). Kind of assay: TIRF microscopy of labelled tropomyosin binding along actin filaments; rhodamine phalloidin-labelled ACTC filaments held on bovine ventricular HMM (0.5 mg/ml) on a nitrocellulose-coated coverslip; Alexa-Tm added while recording at 10 frames per second; fluorescence along a filament normalised from 1 to 100 percent; elongation rate = slope of the binding curve from 0 to 15 s.

The target is the same in assay [2]. Kind of assay: co-sedimentation; 7 uM F-actin with 0.1 to 2 uM tropomyosin in 100 mM KCl, 5 mM MgCl2, 20 mM Tris pH 8, 1 h at 25 C; 100,000 rpm 20 min (TLA100); Tm in the pellet by SDS-PAGE densitometry, normalised 0-100; fit to specific binding with Hill slope.

With “Alexa488-labeled tropomyosin (bovine ventricular tropomyosin modified on Cys-190) (from UniProt Q5KR49 1-284) (natural protein)”, in assay [1], the Elongation Rate came out at 4.56 s⁻¹.
For the substance “tropomyosin purified from bovine ventricular ether powder (from UniProt Q5KR49 1-284)”, in assay [2], the equilibrium dissociation constant (Kd) is 533 nM.
